Legend:
[1] = biological target: collagen I from rat tail (rat) (UniProt P02454); test: co-sedimentation
[2] = biological target: NC3 domain of the small collagen XII subunit (190 kD) (chick); test: two-dimensional SDS-PAGE
[3] = biological target: collagen XII, small variant (small subunit, 220 kD) (chick); test: electron microscopy + nonreducing SDS-PAGE
[4] = biological target: collagen XII, small variant (small subunit, 220 kD) (chick); test: electron microscopy

Sequence of collagen I from rat tail (rat) (P02454 152-1207, chain 1 of 2): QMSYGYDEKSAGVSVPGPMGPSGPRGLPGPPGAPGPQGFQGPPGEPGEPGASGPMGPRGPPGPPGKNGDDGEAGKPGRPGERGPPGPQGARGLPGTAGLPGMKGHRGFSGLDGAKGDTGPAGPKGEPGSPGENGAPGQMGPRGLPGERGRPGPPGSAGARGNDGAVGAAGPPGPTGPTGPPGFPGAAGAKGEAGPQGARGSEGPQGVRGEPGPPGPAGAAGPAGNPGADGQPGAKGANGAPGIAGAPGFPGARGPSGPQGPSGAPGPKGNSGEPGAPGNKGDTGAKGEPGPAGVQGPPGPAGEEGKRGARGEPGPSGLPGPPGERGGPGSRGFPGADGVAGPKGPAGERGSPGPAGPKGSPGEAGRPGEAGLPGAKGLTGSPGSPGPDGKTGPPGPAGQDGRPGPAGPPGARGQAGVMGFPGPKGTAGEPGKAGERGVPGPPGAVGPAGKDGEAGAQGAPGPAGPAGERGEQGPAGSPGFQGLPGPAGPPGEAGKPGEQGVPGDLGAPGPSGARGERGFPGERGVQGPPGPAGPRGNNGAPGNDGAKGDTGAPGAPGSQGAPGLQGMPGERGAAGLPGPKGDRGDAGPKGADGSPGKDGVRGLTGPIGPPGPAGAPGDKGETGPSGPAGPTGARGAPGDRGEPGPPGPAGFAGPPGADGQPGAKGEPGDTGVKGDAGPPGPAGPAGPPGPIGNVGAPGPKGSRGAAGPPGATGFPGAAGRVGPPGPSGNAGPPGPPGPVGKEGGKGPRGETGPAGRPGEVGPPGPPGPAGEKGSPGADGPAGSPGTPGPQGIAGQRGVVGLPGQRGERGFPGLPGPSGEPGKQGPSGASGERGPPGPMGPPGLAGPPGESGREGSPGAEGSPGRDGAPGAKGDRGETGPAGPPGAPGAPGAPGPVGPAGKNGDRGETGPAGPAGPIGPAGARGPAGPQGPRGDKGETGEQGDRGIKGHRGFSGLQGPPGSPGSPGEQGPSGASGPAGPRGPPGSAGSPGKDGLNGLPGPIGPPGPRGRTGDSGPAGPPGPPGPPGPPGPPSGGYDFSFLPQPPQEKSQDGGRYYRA
Sequence of collagen I from rat tail (rat) (P02466 86-1125, chain 2 of 2, further chain): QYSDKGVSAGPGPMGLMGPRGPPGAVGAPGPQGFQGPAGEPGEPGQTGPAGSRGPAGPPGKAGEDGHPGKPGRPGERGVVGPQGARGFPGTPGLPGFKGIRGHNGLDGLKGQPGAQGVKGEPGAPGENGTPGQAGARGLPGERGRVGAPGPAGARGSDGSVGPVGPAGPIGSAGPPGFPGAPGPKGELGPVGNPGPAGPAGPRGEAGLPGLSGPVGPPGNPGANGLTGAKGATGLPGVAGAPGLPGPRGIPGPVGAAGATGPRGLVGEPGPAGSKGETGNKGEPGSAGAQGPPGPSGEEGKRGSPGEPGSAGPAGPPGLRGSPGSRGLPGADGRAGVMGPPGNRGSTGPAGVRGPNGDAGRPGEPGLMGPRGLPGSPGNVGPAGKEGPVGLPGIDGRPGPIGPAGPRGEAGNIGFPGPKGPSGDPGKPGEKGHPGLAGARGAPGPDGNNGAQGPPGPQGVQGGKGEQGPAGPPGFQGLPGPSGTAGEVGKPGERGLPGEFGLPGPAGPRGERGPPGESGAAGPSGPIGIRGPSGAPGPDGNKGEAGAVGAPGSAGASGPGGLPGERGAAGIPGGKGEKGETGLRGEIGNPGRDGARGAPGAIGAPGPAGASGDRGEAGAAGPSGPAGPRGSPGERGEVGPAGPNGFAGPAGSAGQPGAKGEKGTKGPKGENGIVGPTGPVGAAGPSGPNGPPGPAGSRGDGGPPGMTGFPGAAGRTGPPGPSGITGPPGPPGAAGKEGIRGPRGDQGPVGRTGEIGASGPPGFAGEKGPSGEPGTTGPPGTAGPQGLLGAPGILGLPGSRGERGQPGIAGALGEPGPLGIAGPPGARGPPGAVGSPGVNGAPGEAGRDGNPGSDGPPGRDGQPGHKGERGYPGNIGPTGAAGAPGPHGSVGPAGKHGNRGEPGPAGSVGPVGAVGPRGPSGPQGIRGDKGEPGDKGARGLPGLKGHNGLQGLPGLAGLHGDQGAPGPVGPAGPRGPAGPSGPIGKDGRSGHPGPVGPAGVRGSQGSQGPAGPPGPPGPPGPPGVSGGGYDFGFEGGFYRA

With “NC3 domain of the large collagen XII subunit (290 kD), collagenase-treated collagen XII (domain or fragment)” the percent of truncated collagen XII in the pellet (90 mM NaCl, 30 mM phosphate) [1] was 20%.
“NC3 domain of the small collagen XII subunit (190 kD) (domain or fragment)” gave a stoichiometry N [2] of 3.
Work on “collagen XII, small variant (small subunit, 220 kD) (natural protein)” yielded a stoichiometry N [3] of 3 and a stoichiometry N [4] of 3.

Source: PMC2199960
